From patent US20180030151A1 (MOGAM INSTITUTE FOR BIOMEDICAL RESEARCH, published 2018)
Where two headings read alike, the source gives them in different places.

What was measured:
Experiment in all cases: cell-based or functional assay
[1] = target: T1, recombinant human TFPI (tissue factor pathway inhibitor) (human, UniProt P10646 29-304)
[2] = target: TFPI in FVIII-deficient plasma (sample dilution)
[3] = target: T1, recombinant human TFPI (tissue factor …); remark: listed apart in the source
[4] = target: T1, recombinant human TFPI (tissue factor …); remark: listed apart in the source
[5] = target: T1, recombinant human TFPI (tissue factor …); remark: listed apart in the source
[6] = target: T1, recombinant human TFPI (tissue factor …); remark: listed apart in the source
[7] = target: T1, recombinant human TFPI (tissue factor …); remark: listed apart in the source
[8] = target: T1, recombinant human TFPI (tissue factor …); remark: listed apart in the source
[9] = target: T1, recombinant human TFPI (tissue factor …); remark: listed apart in the source
[10] = target: T1, recombinant human TFPI (tissue factor …); remark: listed apart in the source
[11] = target: T1, recombinant human TFPI (tissue factor …); remark: listed apart in the source
[12] = target: T1, recombinant human TFPI (tissue factor …); remark: listed apart in the source

B1: clone 1023 (antibody, V domains shown)
VH: EVQLVESGGGLVKPGGSLRLSCAASGFTFSSYAMNWVRQAPGKGLEWVGTITTGGSYTYYADSVDGRFTISRDNAKNSLYLQMNSLRAEDTAVYYCARQDGNFLMDYWGQGTLVTVSS
VL: DVVMTQTPLSLPVTLGQPASISCKSSQSLLDIDGKTYLNWLQQRPGQSPKRLIYLVSKLDSGVPDRFTGSGSGTDFTLKISRVEAEDVGVYYCWQGTHFPFTFGQGTKVEIKR
notes: scFv on yeast at selection; human IgG4/kappa IgG as purified
With B1 the “effect of inhibiting TFPI, FXa activity assay, Ab 10 nM” value [1] was about 84%, the “effect of inhibiting TFPI, FXa activity assay, Ab 20 nM” value [1] was about 86% and the “ETP vs negative control, thrombin generation assay, Ab 2.5 nM” value [2] was about 309%. For the same binder, the “thrombin peak vs blank, thrombin generation assay, Ab 2.5 nM” value [2] was about 401%, the “A405, TF/FVIIa/FX complex assay, Ab 1.56 nM” value [3] was 0.143 and the “A405, TF/FVIIa/FX complex assay, Ab 3.13 nM” value [3] was 0.152. For the same binder, the “A405, TF/FVIIa/FX complex assay, Ab 6.25 nM” value [3] was 0.168, the “A405, TF/FVIIa/FX complex assay, Ab 12.5 nM” value [3] was 0.228 and the “A405, TF/FVIIa/FX complex assay, Ab 25 nM” value [3] was 0.795. The “A405, TF/FVIIa/FX complex assay, Ab 50 nM” value [3] was 0.947, the “A405, TF/FVIIa/FX complex assay, Ab 100 nM” value [3] was 0.951 and the “% of Normalized, TF/FVIIa/FX complex assay, Ab 1.56 nM” value [4] was 15.6%. The “% of Normalized, TF/FVIIa/FX complex assay, Ab 3.13 nM” value [4] was 16.5%, the “% of Normalized, TF/FVIIa/FX complex assay, Ab 6.25 nM” value [4] was 18.2% and the “% of Normalized, TF/FVIIa/FX complex assay, Ab 12.5 nM” value [4] was 24.8%. The “% of Normalized, TF/FVIIa/FX complex assay, Ab 25 nM” value [4] was 86.5%, the “% of Normalized, TF/FVIIa/FX complex assay, Ab 50 nM” value [4] was 103% and the “% of Normalized, TF/FVIIa/FX complex assay, Ab 100 nM” value [4] was 104%. For the same binder, the “A405, TF/FVIIa/FX complex assay, Ab 1.56 nM” value [5] was 0.153, the “A405, TF/FVIIa/FX complex assay, Ab 3.13 nM” value [5] was 0.167 and the “A405, TF/FVIIa/FX complex assay, Ab 6.25 nM” value [5] was 0.19. The “A405, TF/FVIIa/FX complex assay, Ab 12.5 nM” value [5] was 0.259, the “A405, TF/FVIIa/FX complex assay, Ab 25 nM” value [5] was 0.923 and the “A405, TF/FVIIa/FX complex assay, Ab 50 nM” value [5] was 0.905. The “A405, TF/FVIIa/FX complex assay, Ab 100 nM” value [5] was 0.935, the “% of Normalized, TF/FVIIa/FX complex assay, Ab 1.56 nM” value [6] was 16% and the “% of Normalized, TF/FVIIa/FX complex assay, Ab 3.13 nM” value [6] was 17.5%. The “% of Normalized, TF/FVIIa/FX complex assay, Ab 6.25 nM” value [6] was 19.9%, the “% of Normalized, TF/FVIIa/FX complex assay, Ab 12.5 nM” value [6] was 27.1% and the “% of Normalized, TF/FVIIa/FX complex assay, Ab 25 nM” value [6] was 96.6%. The “% of Normalized, TF/FVIIa/FX complex assay, Ab 50 nM” value [6] was 94.8%, the “% of Normalized, TF/FVIIa/FX complex assay, Ab 100 nM” value [6] was 98% and the “A405, TF/FVIIa/FX complex assay, Ab 1.56 nM” value [7] was 0.135. For the same binder, the “A405, TF/FVIIa/FX complex assay, Ab 3.13 nM” value [7] was 0.16, the “A405, TF/FVIIa/FX complex assay, Ab 6.25 nM” value [7] was 0.185 and the “A405, TF/FVIIa/FX complex assay, Ab 12.5 nM” value [7] was 0.29. For the same binder, the “A405, TF/FVIIa/FX complex assay, Ab 25 nM” value [7] was 0.914, the “A405, TF/FVIIa/FX complex assay, Ab 50 nM” value [7] was 0.938 and the “A405, TF/FVIIa/FX complex assay, Ab 100 nM” value [7] was 0.939. For the same binder, the “% of Normalized, TF/FVIIa/FX complex assay, Ab 1.56 nM” value [8] was 14.7%, the “% of Normalized, TF/FVIIa/FX complex assay, Ab 3.13 nM” value [8] was 17.5% and the “% of Normalized, TF/FVIIa/FX complex assay, Ab 6.25 nM” value [8] was 20.2%. For the same binder, the “% of Normalized, TF/FVIIa/FX complex assay, Ab 12.5 nM” value [8] was 31.6%, the “% of Normalized, TF/FVIIa/FX complex assay, Ab 25 nM” value [8] was 99.8% and the “% of Normalized, TF/FVIIa/FX complex assay, Ab 50 nM” value [8] was 102%. The “% of Normalized, TF/FVIIa/FX complex assay, Ab 100 nM” value [8] was 103%, the “A405, TF/FVIIa/FX complex assay (FX 5 nM), Ab 1.56 nM” value [9] was 0.05 and the “A405, TF/FVIIa/FX complex assay (FX 5 nM), Ab 3.13 nM” value [9] was 0.048. For the same binder, the “A405, TF/FVIIa/FX complex assay (FX 5 nM), Ab 6.25 nM” value [9] was 0.056, the “A405, TF/FVIIa/FX complex assay (FX 5 nM), Ab 12.5 nM” value [9] was 0.079 and the “A405, TF/FVIIa/FX complex assay (FX 5 nM), Ab 25 nM” value [9] was 0.216. For the same binder, the “A405, TF/FVIIa/FX complex assay (FX 5 nM), Ab 50 nM” value [9] was 0.652, the “A405, TF/FVIIa/FX complex assay (FX 5 nM), Ab 100 nM” value [9] was 0.81 and the “% of Normalized, TF/FVIIa/FX complex assay (FX 5 nM), Ab 1.56 nM” value [10] was 6.2%. For the same binder, the “% of Normalized, TF/FVIIa/FX complex assay (FX 5 nM), Ab 3.13 nM” value [10] was 5.9%, the “% of Normalized, TF/FVIIa/FX complex assay (FX 5 nM), Ab 6.25 nM” value [10] was 6.9% and the “% of Normalized, TF/FVIIa/FX complex assay (FX 5 nM), Ab 12.5 nM” value [10] was 9.7%. The “% of Normalized, TF/FVIIa/FX complex assay (FX 5 nM), Ab 25 nM” value [10] was 26.6%, the “% of Normalized, TF/FVIIa/FX complex assay (FX 5 nM), Ab 50 nM” value [10] was 80.5% and the “% of Normalized, TF/FVIIa/FX complex assay (FX 5 nM), Ab 100 nM” value [10] was 100%. The “A405, TF/FVIIa/FX complex assay, Ab 1.56 nM” value [11] was 0.041, the “A405, TF/FVIIa/FX complex assay, Ab 3.13 nM” value [11] was 0.051 and the “A405, TF/FVIIa/FX complex assay, Ab 6.25 nM” value [11] was 0.071. The “A405, TF/FVIIa/FX complex assay, Ab 12.5 nM” value [11] was 0.088, the “A405, TF/FVIIa/FX complex assay, Ab 25 nM” value [11] was 0.371 and the “A405, TF/FVIIa/FX complex assay, Ab 50 nM” value [11] was 0.681. For the same binder, the “A405, TF/FVIIa/FX complex assay, Ab 100 nM” value [11] was 0.846 and the “% of Normalized, TF/FVIIa/FX complex assay, Ab 1.56 nM” value [12] was 4.8%.
